Assay results published in IntAct's records for PubMed 31515488.

B1: Zinc finger protein 774 (Homo sapiens), Q6NX45 (parent)
chain: MWLGTSGKSGLPGHCLENPLQECHPAQLEEWALKGISRPSVISQPEQKEEPWVLPLQNFEARKIPRESHTDCEHQVAKLNQDNSETAEQCGTSSERTNKDLSHTLSWGGNWEQGLELEGQHGTLPGEGQLESFSQERDLNKLLDGYVGEKPMCAECGKSFNQSSYLIRHLRTHTGERPYTCIECGKGFKQSSDLVTHRRTHTGEKPYQCKGCEKKFSDSSTLIKHQRTHTGERPYECPECGKTFGRKPHLIMHQRTHTGEKPYACLECHKSFSRSSNFITHQRTHTGVKPYRCNDCGESFSQSSDLIKHQRTHTGERPFKCPECGKGFRDSSHFVAHMSTHSGERPFSCPDCHKSFSQSSHLVTHQRTHTGERPFKCENCGKGFADSSALIKHQRIHTGERPYKCGECGKSFNQSSHFITHQRIHLGDRPYRCPECGKTFNQRSHFLTHQRTHTGEKPFHCSKCNKSFRQKAHLLCHQNTHLI
B2: Isoform 1 of Mothers against decapentaplegic homolog 3 (Homo sapiens), P84022-1 (parent)
chain: MSSILPFTPPIVKRLLGWKKGEQNGQEEKWCEKAVKSLVKKLKKTGQLDELEKAITTQNVNTKCITIPRSLDGRLQVSHRKGLPHVIYCRLWRWPDLHSHHELRAMELCEFAFNMKKDEVCVNPYHYQRVETPVLPPVLVPRHTEIPAEFPPLDDYSHSIPENTNFPAGIEPQSNIPETPPPGYLSEDGETSDHQMNHSMDAGSPNLSPNPMSPAHNNLDLQPVTYCEPAFWCSISYYELNQRVGETFHASQPSMTVDGFTDPSNSERFCLGLLSNVNRNAAVELTRRHIGRGVRLYYIGGEVFAECLSDSAIFVQSPNCNQRYGWHPATVCKIPPGCNLKIFNNQEFAALLAQSVNQGFEAVYQLTRMCTIRMSFVKGWGAEYRRQTVTSTPCWIELHLNGPLQWLDKVLTQMGSPSIRCSSVS
partner: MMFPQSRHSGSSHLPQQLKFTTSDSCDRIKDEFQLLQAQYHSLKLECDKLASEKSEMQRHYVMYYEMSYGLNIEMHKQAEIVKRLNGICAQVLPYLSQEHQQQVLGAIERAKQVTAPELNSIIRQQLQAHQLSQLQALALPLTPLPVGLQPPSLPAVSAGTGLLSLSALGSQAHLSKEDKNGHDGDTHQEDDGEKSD
B3: G patch domain and ankyrin repeat-containing protein 1 (Homo sapiens), O95872 (parent)
chain: MSRPLLITFTPATDPSDLWKDGQQQPQPEKPESTLDGAAARAFYEALIGDESSAPDSQRSQTEPARERKRKKRRIMKAPAAEAVAEGASGRHGQGRSLEAEDKMTHRILRAAQEGDLPELRRLLEPHEAGGAGGNINARDAFWWTPLMCAARAGQGAAVSYLLGRGAAWVGVCELSGRDAAQLAEEAGFPEVARMVRESHGETRSPENRSPTPSLQYCENCDTHFQDSNHRTSTAHLLSLSQGPQPPNLPLGVPISSPGFKLLLRGGWEPGMGLGPRGEGRANPIPTVLKRDQEGLGYRSAPQPRVTHFPAWDTRAVAGRERPPRVATLSWREERRREEKDRAWERDLRTYMNLEF
B4: Isoform 1 of EF-hand domain-containing family member C2 (Homo sapiens), Q5JST6-1 (parent)
chain: MALPLLPGNSFNRNVGKEKFHKSQHWGFCNNVMMLVSDEKPGIGGEPLLGQKIKPKCSIYPKGDGSDVPSWVAFDKQVLSFDAYLEEEVLDKSQTNYRIRYYKIYFYPEDDTIQVNEPEVKNSGLLQGTSIRRHRITLPPPDEDQFYTVYHFNVGTEVVFYGRTFKIYDCDAFTRNFLRKIGVKVNPPVQCPEDPYMKIRREVVEHVEPLRPYESLDTLKQFLQYHGKILCFFCLWDDSVSMFGDRRELILHYFLCDDTIEIKELLPHSSGRDALKMFLRRSKLPKNCPPRVYQPGQITDRAVLNSYGDFIKNQADGYLFDRYKLGKVDQEFYKDSDLSLGVTINVWGRKVLLYDCDEFTKSYYKSKYGIENFTSVSCKPPSPPPKIERKFPPYNGFGSEEDSLRNCIDLKPTPHRRNFKKFMEKDSYGSKSNILRFFAKLVTDKCVDLDRMFVISYYLGDDTISVFEPIERNSGIAGGMFLKRSRVKKPGQEVFKSELSEYIKAEELYIGVTVNVNGYLFRLLNADEYTLNYMEQNTDKYPFSNLKLALQKLKQEEGKSRELKQVFKAADSKHTNMVDYNTFRDILMSLTVGNLAEQEFVTIARHYRVPEGTCSDMDFLIALAHEKFKKNMFENFDTFIYSCVYEDREKKNVLPTKDIKRLCKSSRLPLSDDLLESLLSRFEDSEKQIDYKSFFSALNWRKNPVPELQPASYLKERCEDVWLGMPSPIPAKYIDYWTFLKDAFGLEEE
partner: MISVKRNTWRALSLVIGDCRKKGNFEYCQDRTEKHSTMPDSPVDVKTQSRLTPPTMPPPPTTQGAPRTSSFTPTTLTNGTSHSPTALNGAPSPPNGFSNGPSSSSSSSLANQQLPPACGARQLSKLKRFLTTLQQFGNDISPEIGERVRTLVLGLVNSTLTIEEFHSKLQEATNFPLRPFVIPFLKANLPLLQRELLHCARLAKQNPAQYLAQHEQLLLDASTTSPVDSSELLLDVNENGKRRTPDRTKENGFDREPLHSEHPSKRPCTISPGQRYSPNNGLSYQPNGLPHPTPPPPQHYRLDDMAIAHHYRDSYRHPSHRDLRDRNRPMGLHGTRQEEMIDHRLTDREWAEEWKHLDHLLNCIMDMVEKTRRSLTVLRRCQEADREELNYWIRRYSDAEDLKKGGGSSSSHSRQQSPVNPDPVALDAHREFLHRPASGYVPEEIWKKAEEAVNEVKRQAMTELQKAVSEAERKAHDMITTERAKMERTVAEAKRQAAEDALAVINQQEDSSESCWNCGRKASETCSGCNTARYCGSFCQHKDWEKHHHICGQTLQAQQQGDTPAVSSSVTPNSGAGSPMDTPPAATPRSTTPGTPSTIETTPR
B5: Trichoplein keratin filament-binding protein (Homo sapiens), Q9BT92 (parent)
chain: MALPTLPSYWCSQQRLNQQLARQREQEARLRQQWEQNSRYFRMSDICSSKQAEWSSKTSYQRSMHAYQREKMKEEKRRSLEARREKLRQLMQEEQDLLARELEELRLSMNLQERRIREQHGKLKSAKEEQRKLIAEQLLYEHWKKNNPKLREMELDLHQKHVVNSWEMQKEEKKQQEATAEQENKRYENEYERARREALERMKAEEERRQLEDKLQAEALLQQMEELKLKEVEATKLKKEQENLLKQRWELERLEEERKQMEAFRQKAELGRFLRHQYNAQLSRRTQQIQEELEADRRILQALLEKEDESQRLHLARREQVMADVAWMKQAIEEQLQLERAREAELQMLLREEAKEMWEKREAEWARERSARDRLMSEVLTGRQQQIQEKIEQNRRAQEESLKHREQLIRNLEEVRELARREKEESEKLKSARKQELEAQVAERRLQAWEADQQEEEEEEEARRVEQLSDALLQQEAETMAEQGYRPKPYGHPKIAWN

Variants of: B1
Conditions: with ldoc1_human LDOC1, O95751
Sequence of ldoc1_human LDOC1, O95751 (O95751 whole entry): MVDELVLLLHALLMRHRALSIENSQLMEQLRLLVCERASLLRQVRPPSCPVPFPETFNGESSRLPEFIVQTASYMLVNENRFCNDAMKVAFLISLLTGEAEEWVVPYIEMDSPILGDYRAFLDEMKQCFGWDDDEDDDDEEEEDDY

Row | effect of a mutation on the interaction | Variant
1 | disrupting interaction strength | R469C
2 | with no effect | E183A
3 | with no effect | V147I

Variants of: B1
Conditions: with trim1_human MID2, Q9UJV3
Sequence of trim1_human MID2, Q9UJV3 (Q9UJV3 whole entry): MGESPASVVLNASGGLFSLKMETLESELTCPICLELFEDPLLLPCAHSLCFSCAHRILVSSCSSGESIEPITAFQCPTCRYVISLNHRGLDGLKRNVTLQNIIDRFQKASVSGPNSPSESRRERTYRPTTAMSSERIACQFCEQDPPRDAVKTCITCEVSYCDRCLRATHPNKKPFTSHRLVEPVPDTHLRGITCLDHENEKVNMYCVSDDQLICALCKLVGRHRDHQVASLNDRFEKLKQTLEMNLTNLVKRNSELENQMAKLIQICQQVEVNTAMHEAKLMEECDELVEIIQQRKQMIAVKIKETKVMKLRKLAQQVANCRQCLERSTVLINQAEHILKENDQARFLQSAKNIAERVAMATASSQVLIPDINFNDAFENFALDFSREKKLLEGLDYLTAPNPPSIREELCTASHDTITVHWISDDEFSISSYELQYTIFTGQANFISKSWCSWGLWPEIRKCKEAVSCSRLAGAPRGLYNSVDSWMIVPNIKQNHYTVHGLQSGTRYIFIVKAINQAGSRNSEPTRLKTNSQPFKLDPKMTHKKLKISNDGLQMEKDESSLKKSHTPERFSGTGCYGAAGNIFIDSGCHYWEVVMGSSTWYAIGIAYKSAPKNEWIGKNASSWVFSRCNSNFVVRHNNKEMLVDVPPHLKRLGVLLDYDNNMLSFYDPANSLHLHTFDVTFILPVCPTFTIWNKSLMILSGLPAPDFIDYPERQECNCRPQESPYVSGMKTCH

Row | effect of a mutation on the interaction | Variant
4 | with no effect | P65L

Variants of: B2
Conditions: with tle5_human TLE5, Q08117

Row | effect of a mutation on the interaction | Variant
5 | disrupting interaction strength | P393L

Variants of: B2
Conditions: with tle5_human TLE5, Q08117
Remark: another data set of the same source

Row | effect of a mutation on the interaction | Variant
6 | with no effect | I170V

Variants of: B3
Conditions: with tri23_human TRIM23, P36406
Sequence of tri23_human TRIM23, P36406 (P36406 whole entry): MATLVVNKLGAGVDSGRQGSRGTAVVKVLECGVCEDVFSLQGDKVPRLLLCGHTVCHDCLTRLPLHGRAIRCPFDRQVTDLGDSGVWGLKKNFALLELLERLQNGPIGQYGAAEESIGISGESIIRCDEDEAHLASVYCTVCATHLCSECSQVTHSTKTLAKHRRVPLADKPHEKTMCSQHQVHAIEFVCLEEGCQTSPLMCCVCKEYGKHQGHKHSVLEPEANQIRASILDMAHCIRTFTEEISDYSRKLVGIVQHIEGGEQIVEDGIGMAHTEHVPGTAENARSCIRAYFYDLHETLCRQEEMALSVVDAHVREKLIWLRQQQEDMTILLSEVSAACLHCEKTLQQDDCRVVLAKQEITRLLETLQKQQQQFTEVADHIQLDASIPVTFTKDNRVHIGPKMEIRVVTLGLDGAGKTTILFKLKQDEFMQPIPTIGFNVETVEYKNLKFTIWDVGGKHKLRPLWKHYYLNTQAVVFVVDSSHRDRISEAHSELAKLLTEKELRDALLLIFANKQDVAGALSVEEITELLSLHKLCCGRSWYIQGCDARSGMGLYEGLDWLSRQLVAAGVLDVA

Row | effect of a mutation on the interaction | Variant
7 | with no effect | D56E

Variants of: B3
Conditions: with pnma1_human PNMA1, Q8ND90
Sequence of pnma1_human PNMA1, Q8ND90 (Q8ND90 whole entry): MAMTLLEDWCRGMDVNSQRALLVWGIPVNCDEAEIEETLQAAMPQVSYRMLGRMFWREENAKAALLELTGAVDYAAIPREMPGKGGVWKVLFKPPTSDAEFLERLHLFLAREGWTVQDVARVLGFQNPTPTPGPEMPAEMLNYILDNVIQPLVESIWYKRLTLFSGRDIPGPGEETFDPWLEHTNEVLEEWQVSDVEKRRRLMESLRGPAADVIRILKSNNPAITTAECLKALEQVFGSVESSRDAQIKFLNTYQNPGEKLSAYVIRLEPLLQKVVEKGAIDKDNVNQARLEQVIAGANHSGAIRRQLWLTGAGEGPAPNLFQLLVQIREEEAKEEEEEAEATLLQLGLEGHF

Row | effect of a mutation on the interaction | Variant
8 | with no effect | R41L

Variants of: B4
Conditions: with mtg8_human RUNX1T1, Q06455

Row | effect of a mutation on the interaction | Variant
9 | with no effect | V376I

Variants of: B4
Conditions: with mtg8_human RUNX1T1, Q06455
Remark: another data set of the same source

Row | effect of a mutation on the interaction | Variant
10 | disrupting interaction strength | N31S

Variants of: B5
Conditions: with KRT15, P19012
Sequence of KRT15, P19012 (P19012 whole entry): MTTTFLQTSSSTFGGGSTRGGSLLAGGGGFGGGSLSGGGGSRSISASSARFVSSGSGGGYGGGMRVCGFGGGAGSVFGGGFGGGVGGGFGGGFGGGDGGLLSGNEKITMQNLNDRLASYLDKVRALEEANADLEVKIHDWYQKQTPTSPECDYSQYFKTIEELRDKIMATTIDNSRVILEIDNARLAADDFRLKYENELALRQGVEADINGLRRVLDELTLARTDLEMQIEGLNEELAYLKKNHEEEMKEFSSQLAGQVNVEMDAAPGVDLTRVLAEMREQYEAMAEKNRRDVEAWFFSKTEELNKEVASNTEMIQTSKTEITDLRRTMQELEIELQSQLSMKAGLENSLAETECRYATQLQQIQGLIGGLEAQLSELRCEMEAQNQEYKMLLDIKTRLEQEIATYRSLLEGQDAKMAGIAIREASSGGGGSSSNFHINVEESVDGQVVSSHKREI

Row | effect of a mutation on the interaction | Variant
11 | with no effect | K127R

Variants of: B5
Conditions: with cdr2_human CDR2, Q01850
Sequence of cdr2_human CDR2, Q01850 (Q01850 whole entry): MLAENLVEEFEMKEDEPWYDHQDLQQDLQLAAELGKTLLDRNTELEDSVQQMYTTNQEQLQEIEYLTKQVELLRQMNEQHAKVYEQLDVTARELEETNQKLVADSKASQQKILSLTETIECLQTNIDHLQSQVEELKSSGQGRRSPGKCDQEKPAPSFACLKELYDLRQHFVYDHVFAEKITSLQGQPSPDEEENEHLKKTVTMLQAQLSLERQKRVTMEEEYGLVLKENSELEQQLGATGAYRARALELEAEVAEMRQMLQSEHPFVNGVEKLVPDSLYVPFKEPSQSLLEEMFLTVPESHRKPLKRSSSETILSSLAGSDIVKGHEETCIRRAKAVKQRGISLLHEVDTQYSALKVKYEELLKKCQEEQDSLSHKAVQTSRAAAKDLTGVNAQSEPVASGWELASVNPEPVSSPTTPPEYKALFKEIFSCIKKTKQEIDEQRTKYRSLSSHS

Row | effect of a mutation on the interaction | Variant
12 | with no effect | K127R

Variants of: B5
Conditions: with ndk7_human NME7, Q9Y5B8
Sequence of ndk7_human NME7, Q9Y5B8 (Q9Y5B8 whole entry): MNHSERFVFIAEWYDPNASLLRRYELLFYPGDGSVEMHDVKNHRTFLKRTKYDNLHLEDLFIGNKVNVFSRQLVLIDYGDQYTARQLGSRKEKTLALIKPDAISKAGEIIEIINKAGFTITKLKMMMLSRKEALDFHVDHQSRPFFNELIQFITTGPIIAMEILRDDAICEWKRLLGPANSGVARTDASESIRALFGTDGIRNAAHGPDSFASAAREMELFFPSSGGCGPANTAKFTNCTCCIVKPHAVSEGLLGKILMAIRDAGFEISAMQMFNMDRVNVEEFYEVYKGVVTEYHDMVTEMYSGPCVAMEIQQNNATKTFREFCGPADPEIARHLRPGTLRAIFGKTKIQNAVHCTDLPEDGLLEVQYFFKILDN

Row | effect of a mutation on the interaction | Variant
13 | with no effect | K127R
